{
  "source": "paper PMC3816987",
  "about": "(Journal of molecular recognition : JMR, 2010)",
  "binders": {"B1": {"name": "Hmg. nucleosomal binding domain 2 (Hmgn2) phage clone, 1M-56K (domain or fragment)", "chain": "not shown", "modifications": "biotin on the C-terminal biotinylation tag (E. coli BirA ligase)"}, "B2": {"name": "CCCTC-binding factor (Ctcf) phage clone, 136G-400T (domain or fragment, mouse, UniProt Q61164 136-400, looked up)", "chain": "GAYENEVSKEGLAESEPMICHTLPLPEGFQVVKVGANGEVETLEQGELPPQEDSSWQKDPDYQPPAKKTKKTKKSKLRYTEEGKDVDVSVYDFEEEQQEGLLSEVNAEKVVGNMKPPKPTKIKKKGVKKTFQCELCSYTCPRRSNLDRHMKSHTDERPHKCHLCGRAFRTVTLLRNHLNTHTGTRPHKCPDCDMAFVTSGELVRHRRYKHTHEKPFKCSMCDYASVEVSKLKRHIRSHTGERPFQCSLCSYASRDTYKLKRHMRT", "modifications": "biotin on the C-terminal biotinylation tag (E. coli BirA ligase)"}, "B3": {"name": "Tubby like protein 1 (Tulp1) phage clone, 125D-243E (domain or fragment, mouse, UniProt Q9Z273 125-243, looked up)", "chain": "DDDEEEEEKKEGKKEKSSLPPKKAPKEREKKAKALGPRGDVGSPDAPRKPLRTKKKEVGEGTKLRKAKKKGPGETDKDPAGSPAALRKEFPAAMFLVGEGGAAEKGVKKKGPPKGSEEE", "modifications": "biotin on the C-terminal biotinylation tag (E. coli BirA ligase)"}, "B4": {"name": "Regulated endocrine-specific protein 18 (Resp18) phage clone, 68V-134K (domain or fragment, mouse, UniProt P47939-1 68-134, looked up)", "chain": "VPEGMFWADDIAYELMTKKVEHLSRLHPQYPCRKDMKAVSPTANAGVRSKQEEKLQLLSPQKSPTVK-{biotinylation tag(biotin)}"}, "B5": {"name": "IQ motif containing GTPase activating protein 2 (Iqgap2) phage clone, 1232E-1368E (domain or fragment, mouse, UniProt Q3UQ44 1232-1368, looked up)", "chain": "EKSDLLNELLESLGEVPTVESFLGEGAVDPNDPNKENTLNQLSKTEISLSLTSKYDVKDGEAVDGRSLMIKTKKLIIDVTRNQPGSTLTEILETPATGQQELEHAKDMESRAVVDSRTPEEGKQSQAVIEDARLPLE", "modifications": "biotin on the C-terminal biotinylation tag (E. coli BirA ligase)"}},
  "data": [
    {"target": "T1, GST fusion protein of Tulp1-N (1M-298Q) (mouse, UniProt Q9Z273 1-298)", "T1 sequence (looked up)": "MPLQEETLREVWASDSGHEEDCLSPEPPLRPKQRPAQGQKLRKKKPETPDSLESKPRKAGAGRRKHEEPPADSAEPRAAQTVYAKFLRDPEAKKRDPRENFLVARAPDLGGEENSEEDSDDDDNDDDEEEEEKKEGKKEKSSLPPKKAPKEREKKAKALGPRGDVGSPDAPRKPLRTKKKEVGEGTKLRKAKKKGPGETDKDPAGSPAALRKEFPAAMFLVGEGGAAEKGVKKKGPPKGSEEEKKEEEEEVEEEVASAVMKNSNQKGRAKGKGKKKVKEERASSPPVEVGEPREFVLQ", "assay": "phage binding assay", "units": {"binding specificity, clonal phage vs. control phage": "X"}, "values": [
      {"binder": "B1", "binding specificity, clonal phage vs. control phage": "~37.8"},
      {"binder": "B2", "binding specificity, clonal phage vs. control phage": "~7.7"},
      {"binder": "B3", "binding specificity, clonal phage vs. control phage": "~32.8"}
    ]},
    {"target": "T2, GST-free tubby-N (tubby N-terminus, 1M-242P) (mouse, UniProt P50586 1-242)", "T2 sequence (looked up)": "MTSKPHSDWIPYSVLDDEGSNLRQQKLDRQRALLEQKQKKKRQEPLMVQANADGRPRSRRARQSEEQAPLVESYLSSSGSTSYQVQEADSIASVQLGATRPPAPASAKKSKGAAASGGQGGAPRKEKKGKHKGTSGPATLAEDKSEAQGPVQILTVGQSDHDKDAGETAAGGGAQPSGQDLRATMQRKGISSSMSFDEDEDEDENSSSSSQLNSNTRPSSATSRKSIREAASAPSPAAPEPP", "assay": "phage binding assay", "units": {"binding specificity, clonal phage vs. control phage": "X"}, "values": [
      {"binder": "B1", "binding specificity, clonal phage vs. control phage": "~33.4"},
      {"binder": "B2", "binding specificity, clonal phage vs. control phage": "~117"},
      {"binder": "B3", "binding specificity, clonal phage vs. control phage": "~49"},
      {"binder": "B4", "binding specificity, clonal phage vs. control phage": "~10.3"},
      {"binder": "B5", "binding specificity, clonal phage vs. control phage": "~53.2"}
    ]}
  ]
}
